Measured values from patent US20090175790A1.

Molecular target: WT HCN1 (mHCN1) (mouse (mHCN1)) (UniProt O88704)
Assay: cell-based or functional assay

Sequence of UniProt O88704 (O88704 whole entry): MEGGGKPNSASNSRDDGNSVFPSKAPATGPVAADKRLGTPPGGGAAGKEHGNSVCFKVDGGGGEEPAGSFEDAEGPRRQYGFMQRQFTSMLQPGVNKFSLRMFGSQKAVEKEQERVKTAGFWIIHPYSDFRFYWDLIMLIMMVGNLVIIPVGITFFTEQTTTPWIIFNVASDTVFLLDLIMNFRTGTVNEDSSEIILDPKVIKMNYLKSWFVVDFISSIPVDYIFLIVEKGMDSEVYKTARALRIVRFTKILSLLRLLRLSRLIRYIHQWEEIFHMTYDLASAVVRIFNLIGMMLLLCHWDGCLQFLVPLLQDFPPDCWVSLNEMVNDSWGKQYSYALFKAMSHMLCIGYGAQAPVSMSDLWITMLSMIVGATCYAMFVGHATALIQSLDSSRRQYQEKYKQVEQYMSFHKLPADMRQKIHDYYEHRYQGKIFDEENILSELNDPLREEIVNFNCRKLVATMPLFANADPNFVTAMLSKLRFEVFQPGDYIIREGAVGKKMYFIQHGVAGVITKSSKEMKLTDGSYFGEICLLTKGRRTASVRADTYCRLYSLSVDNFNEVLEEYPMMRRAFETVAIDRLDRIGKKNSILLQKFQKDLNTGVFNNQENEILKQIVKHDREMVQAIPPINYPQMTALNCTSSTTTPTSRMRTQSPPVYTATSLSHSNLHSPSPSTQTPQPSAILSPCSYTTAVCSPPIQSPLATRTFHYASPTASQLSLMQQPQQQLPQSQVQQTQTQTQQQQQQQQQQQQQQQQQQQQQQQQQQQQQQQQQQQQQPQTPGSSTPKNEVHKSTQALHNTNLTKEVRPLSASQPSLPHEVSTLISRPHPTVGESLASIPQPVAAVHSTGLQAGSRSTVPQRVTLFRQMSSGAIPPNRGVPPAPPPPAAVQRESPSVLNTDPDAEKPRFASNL

- current reduction, WTHCN1:HCN1-AAA cRNA ratio 1:1 (total 25 ng), Xenopus oocytes (% current reduction): 91.7
- current reduction, WTHCN1:HCN1-AAA cRNA ratio 1:2 (total 25 ng), Xenopus oocytes (% current reduction): 97.9
- current reduction, WTHCN1:HCN1-AAA cRNA ratio 2:1 (total 25 ng), Xenopus oocytes (% current reduction): 78.7
- current reduction, WTHCN1:HCN1-AAA cRNA ratio 3:1 (total 25 ng), Xenopus oocytes (% current reduction): 68.3
- current reduction, WTHCN1:HCN1-AAA cRNA ratio 4:1 (total 25 ng), Xenopus oocytes (% current reduction): 55.2
- whole-cell current at -140 mV in Xenopus oocytes, co-injection of 50 nL WT HCN1 and 50 nL HCN1-AAA cRNA against WT HCN1 alone (current reduction): 85.2%
Substance: HCN1-AAA (mHCN1 with the triple mutation GYG365-367AAA) (from UniProt O88704 1-910)
